What follows are substances tested against Recombinant human IGF-II R (cation-independent mannose-6-phosphate receptor, CI-MPR) (human) (UniProt P11717) (assay: SPR).
For “trastuzumab M6P-glycoform 3 (trastuzumab carrying the M6P tetrasaccharide moiety at the Fc glycosylation site) (antibody)”, the Kd was 28.6 nM.
“trastuzumab M6P-glycoform 6 (trastuzumab carrying the M6P-Man3GlcNAc2 glycan at the Fc glycosylation site) (antibody)” showed a Kd of 700 nM.
With “trastuzumab M6P-glycoform 7 (trastuzumab carrying the bis-phosphorylated heptasaccharide moiety at the Fc glycosylation site) (antibody)” the Kd was 5.4 nM.
In the case of “cetuximab M6P-glycoform 10 (cetuximab carrying the bis-phosphorylated heptasaccharide moiety at the Fc glycosylation site) (antibody)”, the Kd is reported as 29.6 nM.
With “cetuximab M6P-glycoform 9 (cetuximab carrying the M6P tetrasaccharide moiety at the Fc glycosylation site) (antibody)” the Kd was 70.3 nM.
